Holding throughout (assay): cell-based or functional assay
In assay [1] the target is Cf2-PBD-VP64 (human) (UniProt P06401).
In assay [2] the target is ER-KRAB (mouse; human) (UniProt P19785).
In assay [3] the target is ER-VP64 (mouse) (UniProt P19785).

Chain of ER-KRAB (mouse; human) (P19785 other isoform, or with tags, fused parts or gaps): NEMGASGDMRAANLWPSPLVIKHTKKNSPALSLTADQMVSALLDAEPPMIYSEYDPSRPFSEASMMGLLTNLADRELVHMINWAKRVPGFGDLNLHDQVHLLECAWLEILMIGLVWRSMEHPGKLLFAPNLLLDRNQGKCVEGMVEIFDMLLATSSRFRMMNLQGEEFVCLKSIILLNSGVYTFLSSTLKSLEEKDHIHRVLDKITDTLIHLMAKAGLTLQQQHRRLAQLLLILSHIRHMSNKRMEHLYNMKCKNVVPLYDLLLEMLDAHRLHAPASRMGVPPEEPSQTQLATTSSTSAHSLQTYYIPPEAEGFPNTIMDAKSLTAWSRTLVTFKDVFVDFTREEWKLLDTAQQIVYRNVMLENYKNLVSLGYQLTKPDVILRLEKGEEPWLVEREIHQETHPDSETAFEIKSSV
Chain of Cf2-PBD-VP64 (human) (P06401 640-914): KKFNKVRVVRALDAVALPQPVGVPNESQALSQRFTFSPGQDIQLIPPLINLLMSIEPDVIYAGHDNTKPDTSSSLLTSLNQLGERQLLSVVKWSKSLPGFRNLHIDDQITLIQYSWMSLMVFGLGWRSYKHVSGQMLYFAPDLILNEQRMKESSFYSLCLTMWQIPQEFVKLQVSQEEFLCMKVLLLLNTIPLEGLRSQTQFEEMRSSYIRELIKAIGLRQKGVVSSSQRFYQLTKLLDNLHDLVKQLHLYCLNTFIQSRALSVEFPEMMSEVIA
Chain of C7-PBD-VP64 (P06401 640-914): as above

On to “C7-PBD-VP64 (from UniProt P06401 640-914)”, for which, in assay [1], the luciferase assay, C7-Cf2 TATA reporter, ligand-dependent change in transcription is 2 fold.
In assay [2], E2C-ER (from UniProt P19785 282-599) yielded a luciferase assay, tamoxifen-dependent repression of the erbB-2 promoter of 2.9 fold. Besides, in assay [3], the luciferase assay, erbB-2 promoter activity in HeLa cells, with and without Tamoxifen stood at 3 fold; the luciferase assay, tamoxifen-dependent activation of the erbB-2 promoter turned out to be 5.3 fold.

These data come from patent publication US20030186841A1.
